The values that follow come from patent US20250163161A1 (TECHNISCHE UNIVERSIT T DARMSTADT, published 2025).

What all share (experiment): BLI
(Biolayer interferometry detects binding as a change in optical thickness at a sensor tip.)

Experiment [1] addresses T1, CD16 (UniProt P08637 17-208).
T1 construct: also called Fcγ-receptor IIIa

Experiment [2] has as its target T2, programmed death-ligand 1 (PD-L1), soluble, as used in BLI (UniProt Q9NZQ7 19-238).
T2 construct: extracellular domain; also called PD-L1-ECD

Experiment [3] has as its target T3, epidermal growth factor receptor (EGFR), soluble, as used in BLI (UniProt P00533 25-645).
T3 construct: extracellular domain; also called EGFR-ECD

The target in experiment [4] is T1, CD16. The source holds these as a separate data set.
For experiment [5], the target named is T2, programmed death-ligand 1 (PD-L1), …. The source holds these as a separate data set.
Experiment [6] deals with T3, epidermal growth factor receptor …. This is another data set of the same source.

By Kd is commonly meant a measure of binding affinity in units of concentration. Low readings indicate higher affinity, high ones lower affinity.

Like-named read-outs stand apart in the source and are kept apart here.

T2 sequence (Q9NZQ7 19-238): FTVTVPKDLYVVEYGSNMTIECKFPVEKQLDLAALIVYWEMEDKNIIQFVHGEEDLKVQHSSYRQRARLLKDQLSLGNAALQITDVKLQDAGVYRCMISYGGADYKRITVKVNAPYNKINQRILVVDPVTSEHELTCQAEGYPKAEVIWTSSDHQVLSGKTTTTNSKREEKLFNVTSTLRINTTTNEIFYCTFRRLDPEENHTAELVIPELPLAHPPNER
T1 sequence (P08637 17-208): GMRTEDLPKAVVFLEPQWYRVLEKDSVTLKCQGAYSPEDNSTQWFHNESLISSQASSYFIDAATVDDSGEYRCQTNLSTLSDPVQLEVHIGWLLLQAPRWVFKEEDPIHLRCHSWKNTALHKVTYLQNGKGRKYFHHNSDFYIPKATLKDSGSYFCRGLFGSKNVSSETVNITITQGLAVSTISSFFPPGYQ

B1: HC16/ICI2 KiH variant: HCP-LCE on one side and CD16 binder HC16 on the other, paired with the HCP-LCE light chain (bispecific antibody)
VH 1: AVTLDESGGGLQTPGGALSLVCKASGFDFSSYDMAWVRQAPGKGLEWVAGIKSNGPWTNYGAAVKGRATISRDNGQSTVRLQLNNLRAEDTAIYYCAKPGAGYVGWDAAGTIDSWGHGTEVIVSS
VH 2: AVTLDESGGGLQTPGGTLSLVCRASGFSFSSSDMFWVRQAPGKGLEYVAQISKDGSGKYYGAAVKGRATISRDNGQSTVRLQLNNLRAEDTGIYFCAKSGRGYVTAGRIDTWGHGTEVIVSS
light: ALTQPSSVSANLGETVKITCSGGAYSDCGWYQQKSPGSAPVTVIYYNDKRPSDIPSRFSGSTFGSTATLTITGVQAEDEAVYYCGGYDSRTGYVGVFGAGTTLTVLGQPKANPTVTLFPPSSEELQANKATLVCLISDFYPGAVTVAWKADGSPVKAGVETTKPSKQSNNKYAASSYLSLTPEQWKSHRSYSCQVTHEGSTVEKTVAPTECS
Turning to B1, the Kd in experiment [1] worked out at 21.9 nM; in experiment [2] it was 57.7 nM; in experiment [3] it was 320 nM.

B2: ICI2_outer and NKE14_inner trispecific variant V2 (bispecific antibody, human IgG1, lambda, L234A L235A)
heavy: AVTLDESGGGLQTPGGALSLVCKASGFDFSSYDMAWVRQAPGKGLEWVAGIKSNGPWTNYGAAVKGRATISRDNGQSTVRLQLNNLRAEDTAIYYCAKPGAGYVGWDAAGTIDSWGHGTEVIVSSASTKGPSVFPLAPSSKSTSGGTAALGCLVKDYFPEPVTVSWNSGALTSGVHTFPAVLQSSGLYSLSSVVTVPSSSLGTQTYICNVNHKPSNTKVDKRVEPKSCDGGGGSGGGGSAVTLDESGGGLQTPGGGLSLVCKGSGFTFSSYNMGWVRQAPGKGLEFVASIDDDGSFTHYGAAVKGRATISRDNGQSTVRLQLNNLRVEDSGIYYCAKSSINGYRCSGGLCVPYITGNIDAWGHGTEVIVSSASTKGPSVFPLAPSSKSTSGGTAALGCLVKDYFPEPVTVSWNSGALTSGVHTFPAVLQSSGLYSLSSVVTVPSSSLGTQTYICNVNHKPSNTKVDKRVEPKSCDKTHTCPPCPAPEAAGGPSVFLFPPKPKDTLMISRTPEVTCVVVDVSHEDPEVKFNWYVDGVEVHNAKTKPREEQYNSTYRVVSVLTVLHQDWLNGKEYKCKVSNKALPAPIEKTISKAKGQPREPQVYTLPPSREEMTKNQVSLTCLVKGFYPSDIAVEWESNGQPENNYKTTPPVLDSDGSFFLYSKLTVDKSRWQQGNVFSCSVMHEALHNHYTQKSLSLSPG
light: ALTQPSSVSANLGETVKITCSGGAYSDCGWYQQKSPGSAPVTVIYYNDKRPSDIPSRFSGSTFGSTATLTITGVQAEDEAVYYCGGYDSRTGYVGVFGAGTTLTVLGQPKANPTVTLFPPSSEELQANKATLVCLISDFYPGAVTVAWKADGSPVKAGVETTKPSKQSNNKYAASSYLSLTPEQWKSHRSYSCQVTHEGSTVEKTVAPTECS
notes: Two Fabs on each side, common light chain LCE; also called ICI2_outer Fab
On to B2, for which the Kd turned out to be 382 nM in experiment [4], 97.6 nM in experiment [5] and 460 nM in experiment [6].

B3: HC16_outer/ICI2_inner trispecific variant (full-length HC16_outer and ICI2_inner LALA construct) (bispecific antibody, human IgG1, lambda, L234A L235A)
heavy: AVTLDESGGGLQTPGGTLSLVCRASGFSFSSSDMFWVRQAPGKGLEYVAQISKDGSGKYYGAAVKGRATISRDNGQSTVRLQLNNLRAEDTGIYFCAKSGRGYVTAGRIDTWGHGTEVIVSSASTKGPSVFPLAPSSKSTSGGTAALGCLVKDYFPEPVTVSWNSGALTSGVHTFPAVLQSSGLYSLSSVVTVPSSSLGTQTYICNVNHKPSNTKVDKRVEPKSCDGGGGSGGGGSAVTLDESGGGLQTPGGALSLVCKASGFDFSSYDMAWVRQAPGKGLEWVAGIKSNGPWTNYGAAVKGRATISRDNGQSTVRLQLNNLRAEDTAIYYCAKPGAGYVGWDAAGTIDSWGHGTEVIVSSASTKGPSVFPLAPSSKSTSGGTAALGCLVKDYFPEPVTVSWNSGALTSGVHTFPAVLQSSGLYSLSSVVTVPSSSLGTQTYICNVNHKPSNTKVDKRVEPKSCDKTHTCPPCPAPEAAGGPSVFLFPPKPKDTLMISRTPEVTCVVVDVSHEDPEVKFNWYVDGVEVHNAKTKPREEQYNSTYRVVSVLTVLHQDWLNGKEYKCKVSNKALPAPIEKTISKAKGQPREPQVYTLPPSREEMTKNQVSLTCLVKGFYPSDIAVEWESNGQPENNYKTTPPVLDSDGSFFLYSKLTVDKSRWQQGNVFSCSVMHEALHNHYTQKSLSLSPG
light: ALTQPSSVSANLGETVKITCSGGAYSDCGWYQQKSPGSAPVTVIYYNDKRPSDIPSRFSGSTFGSTATLTITGVQAEDEAVYYCGGYDSRTGYVGVFGAGTTLTVLGQPKANPTVTLFPPSSEELQANKATLVCLISDFYPGAVTVAWKADGSPVKAGVETTKPSKQSNNKYAASSYLSLTPEQWKSHRSYSCQVTHEGSTVEKTVAPTECS
notes: Two Fabs on each side, common light chain LCE; also called HC16_outer/ICI2_inner LALA
In the case of B3, the Kd in experiment [1] came out at 17 nM; in experiment [2] it was 68 nM; in experiment [3] it was 331 nM.

B4: NKE14_outer and ICI2_inner trispecific variant V4 (bispecific antibody, human IgG1, lambda, L234A L235A)
heavy: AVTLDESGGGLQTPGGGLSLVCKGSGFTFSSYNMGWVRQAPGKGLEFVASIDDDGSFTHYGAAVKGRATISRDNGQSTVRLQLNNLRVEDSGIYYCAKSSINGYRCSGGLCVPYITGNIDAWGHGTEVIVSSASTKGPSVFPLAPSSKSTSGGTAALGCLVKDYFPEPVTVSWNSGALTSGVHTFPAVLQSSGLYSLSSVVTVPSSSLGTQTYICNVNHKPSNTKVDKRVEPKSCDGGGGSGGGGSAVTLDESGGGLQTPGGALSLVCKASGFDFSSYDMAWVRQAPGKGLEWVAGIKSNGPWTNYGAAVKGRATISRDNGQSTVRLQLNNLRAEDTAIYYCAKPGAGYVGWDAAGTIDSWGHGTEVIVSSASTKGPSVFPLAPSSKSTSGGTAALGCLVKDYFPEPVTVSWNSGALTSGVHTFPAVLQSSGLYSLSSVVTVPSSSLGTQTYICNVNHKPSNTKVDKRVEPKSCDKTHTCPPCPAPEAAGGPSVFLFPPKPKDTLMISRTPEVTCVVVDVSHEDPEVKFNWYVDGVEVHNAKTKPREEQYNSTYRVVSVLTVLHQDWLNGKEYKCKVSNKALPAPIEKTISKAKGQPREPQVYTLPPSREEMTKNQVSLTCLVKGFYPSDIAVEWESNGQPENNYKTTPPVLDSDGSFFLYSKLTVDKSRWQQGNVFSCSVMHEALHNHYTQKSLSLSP
light: ALTQPSSVSANLGETVKITCSGGAYSDCGWYQQKSPGSAPVTVIYYNDKRPSDIPSRFSGSTFGSTATLTITGVQAEDEAVYYCGGYDSRTGYVGVFGAGTTLTVLGQPKANPTVTLFPPSSEELQANKATLVCLISDFYPGAVTVAWKADGSPVKAGVETTKPSKQSNNKYAASSYLSLTPEQWKSHRSYSCQVTHEGSTVEKTVAPTECS
notes: Two Fabs on each side, common light chain LCE; also called NKE14_outer Fab
Take B4: the Kd in experiment [4] turned out to be 302 nM; in experiment [5], 125 nM; in experiment [6] it was 603 nM.

B5: one-armed NKE14_outer and ICI2_inner variant V5 (bispecific antibody, human IgG1, lambda, L234A L235A)
heavy 1: AVTLDESGGGLQTPGGGLSLVCKGSGFTFSSYNMGWVRQAPGKGLEFVASIDDDGSFTHYGAAVKGRATISRDNGQSTVRLQLNNLRVEDSGIYYCAKSSINGYRCSGGLCVPYITGNIDAWGHGTEVIVSSASTKGPSVFPLAPSSKSTSGGTAALGCLVKDYFPEPVTVSWNSGALTSGVHTFPAVLQSSGLYSLSSVVTVPSSSLGTQTYICNVNHKPSNTKVDKRVEPKSCDGGGGSGGGGSAVTLDESGGGLQTPGGALSLVCKASGFDFSSYDMAWVRQAPGKGLEWVAGIKSNGPWTNYGAAVKGRATISRDNGQSTVRLQLNNLRAEDTAIYYCAKPGAGYVGWDAAGTIDSWGHGTEVIVSSASTKGPSVFPLAPSSKSTSGGTAALGCLVKDYFPEPVTVSWNSGALTSGVHTFPAVLQSSGLYSLSSVVTVPSSSLGTQTYICNVNHKPSNTKVDKRVEPKSCDKTHTCPPCPAPEAAGGPSVFLFPPKPKDTLMISRTPEVTCVVVDVSHEDPEVKFNWYVDGVEVHNAKTKPREEQYNSTYRVVSVLTVLHQDWLNGKEYKCKVSNKALPAPIEKTISKAKGQPREPQVYTLPPSREEMTKNQVSLWCLVKGFYPSDIAVEWESNGQPENNYKTTPPVLDSDGSFFLYSKLTVDKSRWQQGNVFSCSVMHEALHNHYTQKSLSLSPG
heavy 2: EPKSCDKTHTCPPCPAPEAAGGPSVFLFPPKPKDTLMISRTPEVTCVVVDVSHEDPEVKFNWYVDGVEVHNAKTKPREEQYNSTYRVVSVLTVLHQDWLNGKEYKCKVSNKALPAPIEKTISKAKGQPREPQVYTLPPSREEMTKNQVSLSCAVKGFYPSDIAVEWESNGQPENNYKTTPPVLDSDGSFFLVSKLTVDKSRWQQGNVFSCSVMHEALHNRFTQKSLSLSPG
light: ALTQPSSVSANLGETVKITCSGGAYSDCGWYQQKSPGSAPVTVIYYNDKRPSDIPSRFSGSTFGSTATLTITGVQAEDEAVYYCGGYDSRTGYVGVFGAGTTLTVLGQPKANPTVTLFPPSSEELQANKATLVCLISDFYPGAVTVAWKADGSPVKAGVETTKPSKQSNNKYAASSYLSLTPEQWKSHRSYSCQVTHEGSTVEKTVAPTECS
notes: also called oaNKE14_outer
Turning to B5, the Kd amounted to 342 nM in experiment [4], 137 nM in experiment [5] and 982 nM in experiment [6].

B6: NKE14 + LCE comparative mAb (CD16-binding antibody NKE14 heavy chain with LCE light chain) (antibody)
VH: AVTLDESGGGLQTPGGGLSLVCKGSGFTFSSYNMGWVRQAPGKGLEFVASIDDDGSFTHYGAAVKGRATISRDNGQSTVRLQLNNLRVEDSGIYYCAKSSINGYRCSGGLCVPYITGNIDAWGHGTEVIVSS
light: ALTQPSSVSANLGETVKITCSGGAYSDCGWYQQKSPGSAPVTVIYYNDKRPSDIPSRFSGSTFGSTATLTITGVQAEDEAVYYCGGYDSRTGYVGVFGAGTTLTVLGQPKANPTVTLFPPSSEELQANKATLVCLISDFYPGAVTVAWKADGSPVKAGVETTKPSKQSNNKYAASSYLSLTPEQWKSHRSYSCQVTHEGSTVEKTVAPTECS
notes: LCE is the HCP-LCE light chain
In experiment [4], B6 registered a Kd of 151 nM.

B7: Knob-into-Hole (KiH) trispecific variant V1: HCP-LCE on one side and heavy chain of CD16 binder NKE14, paired with the HCP-LCE light chain (bispecific antibody, human IgG1, lambda, L234A L235A)
heavy 1: AVTLDESGGGLQTPGGALSLVCKASGFDFSSYDMAWVRQAPGKGLEWVAGIKSNGPWTNYGAAVKGRATISRDNGQSTVRLQLNNLRAEDTAIYYCAKPGAGYVGWDAAGTIDSWGHGTEVIVSSASTKGPSVFPLAPSSKSTSGGTAALGCLVKDYFPEPVTVSWNSGALTSGVHTFPAVLQSSGLYSLSSVVTVPSSSLGTQTYICNVNHKPSNTKVDKRVEPKSCDKTHTCPPCPAPEAAGGPSVFLFPPKPKDTLMISRTPEVTCVVVDVSHEDPEVKFNWYVDGVEVHNAKTKPREEQYNSTYRVVSVLTVLHQDWLNGKEYKCKVSNKALPAPIEKTISKAKGQPREPQVYTLPPSREEMTKNQVSLWCLVKGFYPSDIAVEWESNGQPENNYKTTPPVLDSDGSFFLYSKLTVDKSRWQQGNVFSCSVMHEALHNHYTQKSLSLSPG
heavy 2: AVTLDESGGGLQTPGGGLSLVCKGSGFTFSSYNMGWVRQAPGKGLEFVASIDDDGSFTHYGAAVKGRATISRDNGQSTVRLQLNNLRVEDSGIYYCAKSSINGYRCSGGLCVPYITGNIDAWGHGTEVIVSSASTKGPSVFPLAPSSKSTSGGTAALGCLVKDYFPEPVTVSWNSGALTSGVHTFPAVLQSSGLYSLSSVVTVPSSSLGTQTYICNVNHKPSNTKVDKRVEPKSCDKTHTCPPCPAPEAAGGPSVFLFPPKPKDTLMISRTPEVTCVVVDVSHEDPEVKFNWYVDGVEVHNAKTKPREEQYNSTYRVVSVLTVLHQDWLNGKEYKCKVSNKALPAPIEKTISKAKGQPREPQVYTLPPSREEMTKNQVSLSCAVKGFYPSDIAVEWESNGQPENNYKTTPPVLDSDGSFFLVSKLTVDKSRWQQGNVFSCSVMHEALHNRFTQKSLSLSPG
light: ALTQPSSVSANLGETVKITCSGGAYSDCGWYQQKSPGSAPVTVIYYNDKRPSDIPSRFSGSTFGSTATLTITGVQAEDEAVYYCGGYDSRTGYVGVFGAGTTLTVLGQPKANPTVTLFPPSSEELQANKATLVCLISDFYPGAVTVAWKADGSPVKAGVETTKPSKQSNNKYAASSYLSLTPEQWKSHRSYSCQVTHEGSTVEKTVAPTECS
notes: Trispecific (EGFR, PD-L1, CD16)
Take B7: the Kd in experiment [4] is 277 nM; in experiment [5], 104 nM; in experiment [6], 570 nM.

B8: one-armed ICI2_outer and NKE14_inner variant V3 (bispecific antibody, human IgG1, lambda, L234A L235A)
heavy 1: AVTLDESGGGLQTPGGALSLVCKASGFDFSSYDMAWVRQAPGKGLEWVAGIKSNGPWTNYGAAVKGRATISRDNGQSTVRLQLNNLRAEDTAIYYCAKPGAGYVGWDAAGTIDSWGHGTEVIVSSASTKGPSVFPLAPSSKSTSGGTAALGCLVKDYFPEPVTVSWNSGALTSGVHTFPAVLQSSGLYSLSSVVTVPSSSLGTQTYICNVNHKPSNTKVDKRVEPKSCDGGGGSGGGGSAVTLDESGGGLQTPGGGLSLVCKGSGFTFSSYNMGWVRQAPGKGLEFVASIDDDGSFTHYGAAVKGRATISRDNGQSTVRLQLNNLRVEDSGIYYCAKSSINGYRCSGGLCVPYITGNIDAWGHGTEVIVSSASTKGPSVFPLAPSSKSTSGGTAALGCLVKDYFPEPVTVSWNSGALTSGVHTFPAVLQSSGLYSLSSVVTVPSSSLGTQTYICNVNHKPSNTKVDKRVEPKSCDKTHTCPPCPAPEAAGGPSVFLFPPKPKDTLMISRTPEVTCVVVDVSHEDPEVKFNWYVDGVEVHNAKTKPREEQYNSTYRVVSVLTVLHQDWLNGKEYKCKVSNKALPAPIEKTISKAKGQPREPQVYTLPPSREEMTKNQVSLWCLVKGFYPSDIAVEWESNGQPENNYKTTPPVLDSDGSFFLYSKLTVDKSRWQQGNVFSCSVMHEALHNHYTQKSLSLSPG
heavy 2: EPKSCDKTHTCPPCPAPEAAGGPSVFLFPPKPKDTLMISRTPEVTCVVVDVSHEDPEVKFNWYVDGVEVHNAKTKPREEQYNSTYRVVSVLTVLHQDWLNGKEYKCKVSNKALPAPIEKTISKAKGQPREPQVYTLPPSREEMTKNQVSLSCAVKGFYPSDIAVEWESNGQPENNYKTTPPVLDSDGSFFLVSKLTVDKSRWQQGNVFSCSVMHEALHNRFTQKSLSLSPG
light: ALTQPSSVSANLGETVKITCSGGAYSDCGWYQQKSPGSAPVTVIYYNDKRPSDIPSRFSGSTFGSTATLTITGVQAEDEAVYYCGGYDSRTGYVGVFGAGTTLTVLGQPKANPTVTLFPPSSEELQANKATLVCLISDFYPGAVTVAWKADGSPVKAGVETTKPSKQSNNKYAASSYLSLTPEQWKSHRSYSCQVTHEGSTVEKTVAPTECS
notes: also called oaICI2_outer
As for B8, the Kd is 346 nM in experiment [4], 115 nM in experiment [5] and 763 nM in experiment [6].
